From patent publication US20040077054A1 come the findings set out here.

The target of assay [1] is 16K hPRL binding sites in human placental membrane fractions (human). Put plainly: specific binding of 100 pM 125I-16K rPRL (counts displaced by 400 nM 16K hPRL), second trimester placental membranes, n=3.
Assay [2] shares this target. Put plainly: specific binding of 100 pM 125I-16K rPRL (counts displaced by 400 nM 16K hPRL), first trimester placental membranes, n=4.
For assay [3] the target is unchanged. The experiment in a line: specific binding of 100 pM 125I-16K rPRL (counts displaced by 400 nM 16K hPRL), third trimester placental membranes, n=3.
The target is the same in assay [4]. Put plainly: Scatchard analysis, radioligand binding, second trimester human placental membranes.
Assay [5] shares this target. The experiment in a line: Scatchard analysis, radioligand binding, first trimester human placental membranes.
Assay [6] shares this target. The experiment in a line: Scatchard analysis, radioligand binding, third trimester human placental membranes.

In the case of “125I-16K rPRL (rat 16K prolactin, radioiodinated) (from UniProt P01237 30-174) (ligand)”, the maximal specific binding (cpm/5 µg protein) in assay [1] came out at 1780; in assay [2], 357; in assay [3], 4040.

For the substance 16K N-terminal human prolactin (ligand), the results for the maximal binding (Bmax) (fmol/µg protein) in assay [4], in assay [5] and in assay [6] were 630, 3.19 and 775, respectively.
